Reference: patent publication US20120171723A1 (published 2012)
Several values for one entry are separate records, joined by “and”; a condition that tells them apart may be missing. Equal entries are not always repeated.

Key:
Test in all cases: cell-based or functional assay
[1] = molecular target: FGFR3α-IIIc expressed on transfected BAF3 cells
[2] = molecular target: FGFR2α-IIIc expressed on transfected BAF3 cells
[3] = molecular target: FGFR3α-IIIb expressed on transfected BAF3 cells
[4] = molecular target: FGFR1α-IIIb expressed on transfected BAF3 cells
[5] = molecular target: FGFR1α-IIIc expressed on transfected BAF3 cells
[6] = molecular target: FGFR2α-IIIb expressed on transfected BAF3 cells
[7] = molecular target: FGFR3α-IIIc expressed on transfected BAF3 cells; remark: listed apart in the source

B1: human zFGF5 (FGF homolog polypeptide) (ligand)
chain: EENVDFRIHVENQTRARDDVSRKQLRLYQLYSRTSGKHIQVLGRRISARGEDGDKYAQLLVETDTFGSQVRIKGKETEFYLCMNRKGKLVGKPDGTSKECVFIEKVLENNYTALMSAKYSGWYVGFTKKGRPRKGPKTRENQQDVHFMKRYPKGQPELQKPFKYTTVTKRSRRIRPTHPA
[1]
  EC50 of the cell proliferative response: ~1 ng/mL and ~2 ng/mL
[2]
  Alamar Blue Units (proliferation of BAF3 cells expressing the receptor) at 1.6 ng/ml zFGF5: 241 Alamar Blue Units
  Alamar Blue Units (proliferation of BAF3 cells expressing the receptor) at 3.1 ng/ml zFGF5: 480 Alamar Blue Units
  Alamar Blue Units (proliferation of BAF3 cells expressing the receptor) at 6.2 ng/ml zFGF5: 715 Alamar Blue Units
  Alamar Blue Units (proliferation of BAF3 cells expressing the receptor) at 12.5 ng/ml zFGF5: 977 Alamar Blue Units
  Alamar Blue Units (proliferation of BAF3 cells expressing the receptor) at 25 ng/ml zFGF5: 1310 Alamar Blue Units
  Alamar Blue Units (proliferation of BAF3 cells expressing the receptor) at 50 ng/ml zFGF5: 1520 Alamar Blue Units
  Alamar Blue Units (proliferation of BAF3 cells expressing the receptor) at 100 ng/ml zFGF5: 1720 Alamar Blue Units
  Alamar Blue Units (proliferation of BAF3 cells expressing the receptor) at 200 ng/ml zFGF5: 1790 Alamar Blue Units
[3]
  Alamar Blue Units (proliferation of BAF3 cells expressing the receptor) at 1.6 ng/ml zFGF5: 0 Alamar Blue Units
  Alamar Blue Units (proliferation of BAF3 cells expressing the receptor) at 3.1 ng/ml zFGF5: 0 Alamar Blue Units
  Alamar Blue Units (proliferation of BAF3 cells expressing the receptor) at 6.2 ng/ml zFGF5: 0 Alamar Blue Units
  Alamar Blue Units (proliferation of BAF3 cells expressing the receptor) at 12.5 ng/ml zFGF5: 0 Alamar Blue Units
  Alamar Blue Units (proliferation of BAF3 cells expressing the receptor) at 25 ng/ml zFGF5: 1.4 Alamar Blue Units
  Alamar Blue Units (proliferation of BAF3 cells expressing the receptor) at 50 ng/ml zFGF5: 19 Alamar Blue Units
  Alamar Blue Units (proliferation of BAF3 cells expressing the receptor) at 100 ng/ml zFGF5: 189 Alamar Blue Units
  Alamar Blue Units (proliferation of BAF3 cells expressing the receptor) at 200 ng/ml zFGF5: 472 Alamar Blue Units
[4]
  Alamar Blue Units (proliferation of BAF3 cells expressing the receptor) at 1.6 ng/ml zFGF5: 0 Alamar Blue Units
  Alamar Blue Units (proliferation of BAF3 cells expressing the receptor) at 3.1 ng/ml zFGF5: 1.7 Alamar Blue Units
  Alamar Blue Units (proliferation of BAF3 cells expressing the receptor) at 6.2 ng/ml zFGF5: 1.3 Alamar Blue Units
  Alamar Blue Units (proliferation of BAF3 cells expressing the receptor) at 12.5 ng/ml zFGF5: 0 Alamar Blue Units
  Alamar Blue Units (proliferation of BAF3 cells expressing the receptor) at 25 ng/ml zFGF5: 10.9 Alamar Blue Units
  Alamar Blue Units (proliferation of BAF3 cells expressing the receptor) at 50 ng/ml zFGF5: 0 Alamar Blue Units
  Alamar Blue Units (proliferation of BAF3 cells expressing the receptor) at 100 ng/ml zFGF5: 0 Alamar Blue Units
  Alamar Blue Units (proliferation of BAF3 cells expressing the receptor) at 200 ng/ml zFGF5: 0 Alamar Blue Units
[5]
  Alamar Blue Units (proliferation of BAF3 cells expressing the receptor) at 1.6 ng/ml zFGF5: 2.6 Alamar Blue Units
  Alamar Blue Units (proliferation of BAF3 cells expressing the receptor) at 3.1 ng/ml zFGF5: 4.2 Alamar Blue Units
  Alamar Blue Units (proliferation of BAF3 cells expressing the receptor) at 6.2 ng/ml zFGF5: 14.2 Alamar Blue Units
  Alamar Blue Units (proliferation of BAF3 cells expressing the receptor) at 12.5 ng/ml zFGF5: 29.9 Alamar Blue Units
  Alamar Blue Units (proliferation of BAF3 cells expressing the receptor) at 25 ng/ml zFGF5: 86 Alamar Blue Units
  Alamar Blue Units (proliferation of BAF3 cells expressing the receptor) at 50 ng/ml zFGF5: 224 Alamar Blue Units
  Alamar Blue Units (proliferation of BAF3 cells expressing the receptor) at 100 ng/ml zFGF5: 488 Alamar Blue Units
  Alamar Blue Units (proliferation of BAF3 cells expressing the receptor) at 200 ng/ml zFGF5: 912 Alamar Blue Units
[6]
  Alamar Blue Units (proliferation of BAF3 cells expressing the receptor) at 1.6 ng/ml zFGF5: 0.2 Alamar Blue Units
  Alamar Blue Units (proliferation of BAF3 cells expressing the receptor) at 3.1 ng/ml zFGF5: 0.06 Alamar Blue Units
  Alamar Blue Units (proliferation of BAF3 cells expressing the receptor) at 6.2 ng/ml zFGF5: 0 Alamar Blue Units
  Alamar Blue Units (proliferation of BAF3 cells expressing the receptor) at 12.5 ng/ml zFGF5: 0.4 Alamar Blue Units
  Alamar Blue Units (proliferation of BAF3 cells expressing the receptor) at 25 ng/ml zFGF5: 0.2 Alamar Blue Units
  Alamar Blue Units (proliferation of BAF3 cells expressing the receptor) at 50 ng/ml zFGF5: 0.5 Alamar Blue Units
  Alamar Blue Units (proliferation of BAF3 cells expressing the receptor) at 100 ng/ml zFGF5: 1.3 Alamar Blue Units
  Alamar Blue Units (proliferation of BAF3 cells expressing the receptor) at 200 ng/ml zFGF5: 1.3 Alamar Blue Units
[7]
  Alamar Blue Units (proliferation of BAF3 cells expressing the receptor) at 1.6 ng/ml zFGF5: 1400 Alamar Blue Units
  Alamar Blue Units (proliferation of BAF3 cells expressing the receptor) at 3.1 ng/ml zFGF5: 2000 Alamar Blue Units
  Alamar Blue Units (proliferation of BAF3 cells expressing the receptor) at 6.2 ng/ml zFGF5: 2580 Alamar Blue Units
  Alamar Blue Units (proliferation of BAF3 cells expressing the receptor) at 12.5 ng/ml zFGF5: 3200 Alamar Blue Units
  Alamar Blue Units (proliferation of BAF3 cells expressing the receptor) at 25 ng/ml zFGF5: 3760 Alamar Blue Units
  Alamar Blue Units (proliferation of BAF3 cells expressing the receptor) at 50 ng/ml zFGF5: 3960 Alamar Blue Units
  Alamar Blue Units (proliferation of BAF3 cells expressing the receptor) at 100 ng/ml zFGF5: 4120 Alamar Blue Units
  Alamar Blue Units (proliferation of BAF3 cells expressing the receptor) at 200 ng/ml zFGF5: 4200 Alamar Blue Units
